The series in a line: self-splicing fitness, log relative to wild type (ln ratio); higher = more splicing; Tetrahymena group I intron in knt gene, E. coli kanamycin selection, DiMSum; sequences stand for … in CUCUCU…GGAGGGAAAAGUUAUCAGGCAUGCACCUGGUAGCUAGUCUUUAAACCAAUAGAUUGCAUCGGUUUAAAAGGCAAGACCGUCAAAUUGCGGGAAAGGGGUCAACAGCCGUUCAGUACCAAGUCUCAGGGGAAACUUUGAGAUGGCCUUGCAAAGGGUAUGGUAAUAAGCUGACGGACAUGGUCCUAACCACGCAGCCAAGUCCUAAGUCAACAGAUCUUCUGUUGAUAUGGAUGCAGUUCACAGACUAAAUGUCGGUCGGGGAAGAUGUAUUCUUCUCAUAAGAUAUAGUCGGACCUCUCCUUAAUGGGAGCUAGCGGAUGAAGUGAUGCAACACUGGAGCCGCUGGGAACUAAUUUGUAUGCGAAAGUAUAUUGAUUAGUUUUGGAGUACUCGUGGUCG
A digest of the protocol: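 Pooled colonies went to amplicon sequencing on an Illumina HiSeq 2500 after six replicate transformations. The plates were LB agar with 100 μg/mL carbenicillin, 50 μM IPTG and 0.2% rhamnose, with or without 25 μg/mL kanamycin, incubated overnight at 37°C or 30°C. The E. coli BL21(DE3) library had all eight P1ex-region intron nucleotides randomised, the intron placed in the knt kanamycin-resistance gene on pET-22b(+). DiMSum fitness is the error-weighted combination of replicate fold changes, kanamycin against none, normalised to wild type.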

Consider 78 sequences from the supplement of paper PMC7877785.

± gives the uncertainty stated by the source.

GCCGAGCAAUAUUACGAGGU: the “self-splicing fitness (ln)” value (30 °C) is -4 ± 0.3 and the “self-splicing fitness (ln)” value (37 °C) is -2.23 ± 0.25. The like results for GUGAAGCAAUAUUACGUGAU were, in that order, -1.97 ± 0.12 and -1.03 ± 0.14.

In the case of CCUCAGCAAUAUUACGAUUU, the “self-splicing fitness (ln)” value is -4.46 ± 0.22 (30 °C) and -1.39 ± 0.15 (37 °C).

On to UUUAAGCAAUAUUACGUCGG, for which the “self-splicing fitness (ln)” value is -0.492 ± 0.079 (30 °C) and -0.762 ± 0.089 (37 °C). For UUCCAGCAAUAUUACGCGCU, under “30 °C”, the “self-splicing fitness (ln)” value is -3.9 ± 0.3.

CCGAAGCAAUAUUACGUGGU: the “self-splicing fitness (ln)” value is -4.68 ± 0.29 (30 °C) and -2.24 ± 0.2 (37 °C). The like results for UUUAAGCAAUAUUACGGAAG were, in that order, -2.97 ± 0.26 and -1.37 ± 0.3. Taken in the same sequence, the figures for GUACAGCAAUAUUACGAAAC were -1.74 ± 0.1 and -0.531 ± 0.12. For UAGUAGCAAUAUUACGCGAA, the “self-splicing fitness (ln)” value (37 °C) was -2.45 ± 0.41. AUCGAGCAAUAUUACGGAUC: the “self-splicing fitness (ln)” value was -3.66 ± 0.41 (30 °C) and -1.38 ± 0.32 (37 °C). For the sequence AUGUAGCAAUAUUACGAAUC, where the note is “37 °C”, the “self-splicing fitness (ln)” value is -2.91 ± 0.29. In the case of UCUCAGCAAUAUUACGACAA, the “self-splicing fitness (ln)” value is, setting by setting: (30 °C) -1.98 ± 0.25; (37 °C) -1.31 ± 0.27. For the sequence UUUAAGCAAUAUUACGUGUC, the “self-splicing fitness (ln)” value was -3.99 ± 0.33 (30 °C) and -2.65 ± 0.25 (37 °C).

Take CGGUAGCAAUAUUACGCAUG: the “self-splicing fitness (ln)” value runs as follows: (30 °C) -0.808 ± 0.069; (37 °C) 0.339 ± 0.08. Consider CGAAAGCAAUAUUACGAGGU, for which the “self-splicing fitness (ln)” value (37 °C) was -1.64 ± 0.3. For the sequence AAUGAGCAAUAUUACGCUAU, the “self-splicing fitness (ln)” value by setting is: (30 °C) -2.84 ± 0.28; (37 °C) -1 ± 0.16. The like results for CGCGAGCAAUAUUACGUCAG were, in that order, -1.19 ± 0.092 and -1.27 ± 0.11. Regarding AUAUAGCAAUAUUACGCUUC, the “self-splicing fitness (ln)” value is, setting by setting: (30 °C) -2.84 ± 0.38; (37 °C) -2.86 ± 0.43.

Regarding GCGUAGCAAUAUUACGAACA, the “self-splicing fitness (ln)” value (30 °C) is -0.46 ± 0.22 and the “self-splicing fitness (ln)” value (37 °C) was -0.256 ± 0.24. Taken in the same sequence, the figures for GCAAAGCAAUAUUACGUCCU were -0.435 ± 0.1 and 0.035 ± 0.12. In the case of UGGUAGCAAUAUUACGGAUG, the “self-splicing fitness (ln)” value by setting is: (30 °C) -1.34 ± 0.15; (37 °C) 0.065 ± 0.13.

As for UACCAGCAAUAUUACGAGAA, the “self-splicing fitness (ln)” value is -1.72 ± 0.14 (30 °C) and -1.22 ± 0.13 (37 °C). Consider UAUUAGCAAUAUUACGUAGA, for which the “self-splicing fitness (ln)” value (30 °C) is -2.62 ± 0.19 and the “self-splicing fitness (ln)” value (37 °C) is -1.38 ± 0.19.

For CGGGAGCAAUAUUACGCUUC, under “37 °C”, the “self-splicing fitness (ln)” value was -2.21 ± 0.31. Regarding GUCUAGCAAUAUUACGGAUG, the “self-splicing fitness (ln)” value is -1.93 ± 0.2 (30 °C) and 0.0916 ± 0.19 (37 °C). The like results for CCCGAGCAAUAUUACGUGAG were, in that order, -3.58 ± 0.19 and -2.77 ± 0.24. Consider AUCGAGCAAUAUUACGCGGG, for which the “self-splicing fitness (ln)” value (30 °C) is -2.23 ± 0.24 and the “self-splicing fitness (ln)” value (37 °C) is -1.21 ± 0.29. Taken in the same sequence, the figures for AGUCAGCAAUAUUACGAUGU were 0.202 ± 0.062 and 0.34 ± 0.087. The like results for AAGCAGCAAUAUUACGAUUC were, in that order, -1.73 ± 0.081 and -0.707 ± 0.092.

Consider UACUAGCAAUAUUACGGACA, for which the “self-splicing fitness (ln)” value was -0.57 ± 0.13 (30 °C) and -0.47 ± 0.16 (37 °C). Taken in the same sequence, the figures for AUUUAGCAAUAUUACGCGUC were -3.21 ± 0.3 and -2.96 ± 0.47. The like results for UUCGAGCAAUAUUACGCCUC were, in that order, -3.3 ± 0.4 and -1.3 ± 0.4. In the case of AUUCAGCAAUAUUACGACCA, the “self-splicing fitness (ln)” value by setting is: (30 °C) -0.206 ± 0.26; (37 °C) 0.501 ± 0.29. Taken in the same sequence, the figures for GAGAAGCAAUAUUACGGCUA were 0.0865 ± 0.09 and -0.0778 ± 0.1. Taken in the same sequence, the figures for UCUUAGCAAUAUUACGCAGU were -2.76 ± 0.22 and -1.05 ± 0.13. Taken in the same sequence, the figures for AGCGAGCAAUAUUACGGUAU were -3.18 ± 0.16 and -2.54 ± 0.22.

With AUGCAGCAAUAUUACGUUAC, the “self-splicing fitness (ln)” value (30 °C) is -3.57 ± 0.3 and the “self-splicing fitness (ln)” value (37 °C) is -1.54 ± 0.22. Take CCGGAGCAAUAUUACGAUGC: for the setting “30 °C”, the “self-splicing fitness (ln)” value was -2.69 ± 0.41. On to ACCCAGCAAUAUUACGCUGU, for which the “self-splicing fitness (ln)” value (30 °C) is -1.86 ± 0.075 and the “self-splicing fitness (ln)” value (37 °C) is -0.908 ± 0.098. The like results for CUGCAGCAAUAUUACGUACG were, in that order, -0.548 ± 0.082 and 0.0422 ± 0.11. Taken in the same sequence, the figures for UUGAAGCAAUAUUACGUUAA were -1.47 ± 0.075 and -0.311 ± 0.11.

On to CACUAGCAAUAUUACGCUUG, for which the “self-splicing fitness (ln)” value is -2.03 ± 0.16 (30 °C) and -0.991 ± 0.13 (37 °C). Taken in the same sequence, the figures for CGCAAGCAAUAUUACGCUCC were -2.06 ± 0.27 and -1.11 ± 0.38.

On to UGACAGCAAUAUUACGCUCU, for which the “self-splicing fitness (ln)” value reads like this: (30 °C) -0.946 ± 0.083; (37 °C) -0.389 ± 0.093.

Consider UAUGAGCAAUAUUACGAACC, for which the “self-splicing fitness (ln)” value (30 °C) is -2.34 ± 0.4. Take GGCUAGCAAUAUUACGUAGA: the “self-splicing fitness (ln)” value by setting is: (30 °C) -0.208 ± 0.079; (37 °C) -0.236 ± 0.1. The like results for CGCGAGCAAUAUUACGCACU were, in that order, -2.58 ± 0.13 and -1.51 ± 0.13. Taken in the same sequence, the figures for UCUAAGCAAUAUUACGGGCA were -1.42 ± 0.12 and -0.441 ± 0.12. The like results for GGCGAGCAAUAUUACGAUUU were, in that order, -1.09 ± 0.092 and -0.569 ± 0.12. For the sequence CAAAAGCAAUAUUACGCUAC, the “self-splicing fitness (ln)” value (30 °C) is -3.82 ± 0.26 and the “self-splicing fitness (ln)” value (37 °C) is -2.59 ± 0.25. Taken in the same sequence, the figures for GUAUAGCAAUAUUACGGUCA were -1.5 ± 0.2 and -0.663 ± 0.18. The like results for AGGGAGCAAUAUUACGGAAA were, in that order, -2.4 ± 0.34 and -2.34 ± 0.42. Turning to ACAUAGCAAUAUUACGAGGA, for the setting “37 °C”, the “self-splicing fitness (ln)” value was -2.56 ± 0.29. In the case of UCUGAGCAAUAUUACGACGG, the “self-splicing fitness (ln)” value by setting is: (30 °C) -1.18 ± 0.11; (37 °C) -0.451 ± 0.12. Take CCUCAGCAAUAUUACGCCAU: the “self-splicing fitness (ln)” value reads like this: (30 °C) -2.88 ± 0.35; (37 °C) -1.8 ± 0.18. The like results for UGGCAGCAAUAUUACGAGGG were, in that order, -3.44 ± 0.23 and -2.73 ± 0.25.

UACCAGCAAUAUUACGCUAC: the “self-splicing fitness (ln)” value reads like this: (30 °C) -3.17 ± 0.2; (37 °C) -1.83 ± 0.18. CUCUAGCAAUAUUACGCUAC: the “self-splicing fitness (ln)” value reads like this: (30 °C) -3.65 ± 0.47; (37 °C) -1.14 ± 0.37. Taken in the same sequence, the figures for UGAAAGCAAUAUUACGGCUC were -1.4 ± 0.13 and -0.842 ± 0.12.

As for ACCAAGCAAUAUUACGUUGU, the “self-splicing fitness (ln)” value by setting is: (30 °C) -2.74 ± 0.094; (37 °C) -0.985 ± 0.085.

For the sequence CUCAAGCAAUAUUACGUUUA, the “self-splicing fitness (ln)” value (30 °C) is -3.93 ± 0.24 and the “self-splicing fitness (ln)” value (37 °C) is -2.65 ± 0.16. For the sequence GCAUAGCAAUAUUACGCACC, where the note is “30 °C”, the “self-splicing fitness (ln)” value is -1.28 ± 0.21. For GUCUAGCAAUAUUACGCGGG, the “self-splicing fitness (ln)” value is -3.1 ± 0.19 (30 °C) and -1.98 ± 0.17 (37 °C). The like results for AACAAGCAAUAUUACGGUUC were, in that order, -2.97 ± 0.12 and -2.43 ± 0.12. Take CUAGAGCAAUAUUACGUCGU: the “self-splicing fitness (ln)” value (30 °C) is -3.73 ± 0.42. In the case of CUAAAGCAAUAUUACGCAUU, the “self-splicing fitness (ln)” value was -4.21 ± 0.21 (30 °C) and -1.51 ± 0.14 (37 °C). Turning to CUCGAGCAAUAUUACGUCGC, the “self-splicing fitness (ln)” value is, setting by setting: (30 °C) -4.4 ± 0.36; (37 °C) -1.12 ± 0.19. The like results for AUGGAGCAAUAUUACGCAUU were, in that order, -3.12 ± 0.22 and -1.84 ± 0.22. The like results for CGUUAGCAAUAUUACGAUGC were, in that order, -0.888 ± 0.21 and -1.63 ± 0.31. Taken in the same sequence, the figures for UGGCAGCAAUAUUACGUUGU were -3.71 ± 0.29 and -3.17 ± 0.3. As for CAAUAGCAAUAUUACGUCAC, the “self-splicing fitness (ln)” value is -2.04 ± 0.2 (30 °C) and -2.71 ± 0.43 (37 °C). With AGGUAGCAAUAUUACGUGGA, the “self-splicing fitness (ln)” value was -3.365 ± 0.027 (30 °C) and -2.61 ± 0.037 (37 °C). The like results for GUUUAGCAAUAUUACGAUGC were, in that order, -0.832 ± 0.089 and 0.32 ± 0.12. Taken in the same sequence, the figures for AAGGAGCAAUAUUACGGAAG were -3.7 ± 0.34 and -1.63 ± 0.25. For the sequence UUUCAGCAAUAUUACGCUUC, the “self-splicing fitness (ln)” value (30 °C) was -0.771 ± 0.21 and the “self-splicing fitness (ln)” value (37 °C) is -2.33 ± 0.38. Taken in the same sequence, the figures for AGUUAGCAAUAUUACGGUCG were -0.622 ± 0.094 and -0.715 ± 0.14. For CCUGAGCAAUAUUACGCCGU, the “self-splicing fitness (ln)” value (30 °C) was -3.18 ± 0.45 and the “self-splicing fitness (ln)” value (37 °C) was -1.61 ± 0.39. With UGUUAGCAAUAUUACGUAGA, the “self-splicing fitness (ln)” value runs as follows: (30 °C) -2.29 ± 0.12; (37 °C) -0.809 ± 0.14.
